Assay results as given in article doi:10.1101/569251 (bioRxiv, 2019).

Molecular target: the molecule itself

B1: SEPT7 (residues 29-437) with N-terminal His-tag (domain or fragment, human, UniProt Q16181-1 29-437, looked up)
chain: GYVGFANLPNQVYRKSVKRGFEFTLMVVGESGLGKSTLINSLFLTDLYSPEYPGPSHRIKKTVQVEQSKVLIKEGGVQLLLTIVDTPGFGDAVDNSNCWQPVIDYIDSKFEDYLNAESRVNRRQMPDNRVQCCLYFIAPSGHGLKPLDIEFMKRLHEKVNIIPLIAKADTLTPEECQQFKKQIMKEIQEHKIKIYEFPETDDEEENKLVKKIKDRLPLAVVGSNTIIEVNGKRVRGRQYPWGVAEVENGEHCDFTILRNMLIRTHMQDLKDVTNNVHYENYRSRKLAAVTYNGVDNNKNKGQLTKSPLAQMEEERREHVAKMKKMEMEMEQVFEMKVKEKVQKLKDSEAELQRRHEQMKKNLEAQHKELEEKRRQFEDEKANWEAQQRILEQQNSSRTLEKNKKKGKIF
- binding result: binds
